B1: VDR (parent)
chain: VTLELSQLSMLPHLADLVSYSIQK
B2: DLC1 (parent)
chain: RDAIEALCRRLNTLNKCAVMKLEI
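Note: lentivirally expressed fusions sorted by FACS into six bins by GFP to DsRed ratio, PSI derived from sequencing read proportions per bin multiplied by bin number.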

One data set covers variants of B1. Put plainly: protein stability index of a GFP-peptide fusion (GPS, HEK-293T) (PSI 1-6); higher = more stable. The note with it: c terminus: a fixed tail appended.
Take FTLELSQLSMLPHLADLVSYSIQK [V1F]: the protein stability index is 2.61.
Same read-out and setting: next, ETLELSQLSMLPHLADLVSYSIQK [V1E]: 1.9.
On the same count and under the same terms, in the case of QTLELSQLSMLPHLADLVSYSIQK [V1Q] it was 2.66.
Take LTLELSQLSMLPHLADLVSYSIQK [V1L]: the protein stability index worked out at 4.07.
The same measure, in the same setting: in the case of MTLELSQLSMLPHLADLVSYSIQK [V1M] it was 2.18; in that of ATLELSQLSMLPHLADLVSYSIQK [V1A], 1.63.
Regarding TTLELSQLSMLPHLADLVSYSIQK [V1T], the protein stability index stood at 3.
On to RTLELSQLSMLPHLADLVSYSIQK [V1R], for which the protein stability index is 3.03.
On the same count and under the same terms, next, PTLELSQLSMLPHLADLVSYSIQK [V1P]: 1.58; KTLELSQLSMLPHLADLVSYSIQK [V1K]: 1.86.
Consider DTLELSQLSMLPHLADLVSYSIQK [V1D], for which the protein stability index was 2.29.
On the same count and under the same terms, next, NTLELSQLSMLPHLADLVSYSIQK [V1N]: 1.81; STLELSQLSMLPHLADLVSYSIQK [V1S]: 1.99.
With GTLELSQLSMLPHLADLVSYSIQK [V1G], the protein stability index stood at 2.5.
Still for that read-out and setting: next, HTLELSQLSMLPHLADLVSYSIQK [V1H]: 2.44.

Variants of B2 are the subject of another data set. The data set is described as above. The settings on record: c terminus: a fixed tail appended.
As for RDAIEALCRRLNTLNKCAVMMLEI [K21M], the protein stability index is 1.69.
On to RDAIEALCRRLNTLNKCAVMLLEI [K21L], for which the protein stability index came to 2.53.
Consider RDAIEALCRRLNTLNKCAVMSLEI [K21S], for which the protein stability index was 1.73.
Same read-out and setting: in the case of RDAIEALCRRLNTLNKCAVMPLEI [K21P] it was 1.33.
The same measure, in the same setting: next, RDAIEALCRRLNTLNKCAVMQLEI [K21Q]: 4.24; RDAIEALCRRLNTLNKCAVMALEI [K21A]: 2.6.
On to RDAIEALCRRLNTLNKCAVMCLEI [K21C], for which the protein stability index was 1.39.
On the same count and under the same terms, next, RDAIEALCRRLNTLNKCAVMILEI [K21I]: 2.1; RDAIEALCRRLNTLNKCAVMNLEI [K21N]: 1.61.
Same read-out and setting: next, RDAIEALCRRLNTLNKCAVMYLEI [K21Y]: 2.5; RDAIEALCRRLNTLNKCAVMELEI [K21E]: 1.73; RDAIEALCRRLNTLNKCAVMRLEI [K21R]: 2.88.
Consider RDAIEALCRRLNTLNKCAVMGLEI [K21G], for which the protein stability index was 1.97.
Regarding RDAIEALCRRLNTLNKCAVMTLEI [K21T], the protein stability index was determined as 2.06.
Same read-out and setting: in the case of RDAIEALCRRLQTLNKCAVMKLEI [N12Q] it was 1.45; in that of RDAIEALCRRLTTLNKCAVMKLEI [N12T], 2.2; in that of RDAIEALCRRLVTLNKCAVMKLEI [N12V], 2.37.
Regarding RDAIEALCRRLSTLNKCAVMKLEI [N12S], the protein stability index turned out to be 1.77.
As for RDAIEALCRRLRTLNKCAVMKLEI [N12R], the protein stability index is 1.79.
For the variant RDAIEALCRRLYTLNKCAVMKLEI [N12Y], the protein stability index was found to be 3.36.
On to RDAIEALCRRLNTLNKCCVMKLEI [A18C], for which the protein stability index is 2.83.
On the same count and under the same terms, in the case of RDAIEALCRRLNTLNKCLVMKLEI [A18L] it was 2.58; in that of RDAIEALCRRLNTLNKCYVMKLEI [A18Y], 3.01.
On the same count and under the same terms, next, RDAIEALCRRLNTLNKCIVMKLEI [A18I]: 3.66.
On the same count and under the same terms, next, RDAIEALCRRLNTLNKCQVMKLEI [A18Q]: 2.02.
Consider RDAIEALCRRLNTLNKCFVMKLEI [A18F], for which the protein stability index was determined as 4.02.
RDAIEALCRRLNTLNKCVVMKLEI [A18V]: the protein stability index is 3.7.
Turning to RDAIEALCRRLNTLNKCDVMKLEI [A18D], the protein stability index was 2.78.
Same read-out and setting: next, RDAIEALCRRLNTLNKCEVMKLEI [A18E]: 2.7; RDAIEALCRRLNTLNKCWVMKLEI [A18W]: 2.66; RDAIEALCRRLNTLNKCRVMKLEI [A18R]: 1.07.
Consider RDAIEALCRRLNTLNKCHVMKLEI [A18H], for which the protein stability index was determined as 2.23.
For the variant RDAIEALCRRLNTLNKCPVMKLEI [A18P], the protein stability index is 1.82.
Consider RDAIEALCRRLNELNKCAVMKLEI [T13E], for which the protein stability index was 1.7.
On to RDAIEALCRRLNILNKCAVMKLEI [T13I], for which the protein stability index is 2.04.
On the same count and under the same terms, in the case of RDAIEALCRRLNLLNKCAVMKLEI [T13L] it was 2.33; in that of RDAIEALCRRLNRLNKCAVMKLEI [T13R], 2.35.
The same measure, in the same setting: in the case of RDAIEALCRRLNNLNKCAVMKLEI [T13N] it was 2.28; in that of RDAIEALCRRLNHLNKCAVMKLEI [T13H], 2.02.
Still for that read-out and setting: in the case of RDAIEALCRRLNKLNKCAVMKLEI [T13K] it was 1.55; in that of RDAIEALCRRLNCLNKCAVMKLEI [T13C], 2.26.
On to RDAIEALCRRLNSLNKCAVMKLEI [T13S], for which the protein stability index is 2.09.
On the same count and under the same terms, in the case of RDAIEALCRRLNYLNKCAVMKLEI [T13Y] it was 2.79; in that of RDAIEALCRRLNTHNKCAVMKLEI [L14H], 2.74.
With RDAIEALCRRLNTWNKCAVMKLEI [L14W], the protein stability index was 2.22.
For RDAIEALCRRLNTMNKCAVMKLEI [L14M], the protein stability index turned out to be 1.49.
Same read-out and setting: next, RDAIEALCRRLNTANKCAVMKLEI [L14A]: 1.68.
For the variant RDAIEALCRRLNTPNKCAVMKLEI [L14P], the protein stability index was found to be 2.09.
Same read-out and setting: in the case of RDAIEALCRRLNTCNKCAVMKLEI [L14C] it was 2.35; in that of RDAIEALCRRLNTENKCAVMKLEI [L14E], 2.98; in that of RDAIEALCRRLNTINKCAVMKLEI [L14I], 4.47.
Same read-out and setting: next, RDAIEALCRRLNTDNKCAVMKLEI [L14D]: 1.37.
In the case of RDAIEALCRRLNTVNKCAVMKLEI [L14V], the protein stability index amounted to 2.93.
Same read-out and setting: in the case of RDAIEALCRRLNTSNKCAVMKLEI [L14S] it was 3.43; in that of RDAIEALCRRLNTQNKCAVMKLEI [L14Q], 2.24.
RDAIEALCRRLNTYNKCAVMKLEI [L14Y]: the protein stability index was 3.26.
Same read-out and setting: in the case of RDAIEALCRRLNTKNKCAVMKLEI [L14K] it was 1.88; in that of RDAIEALCRRLNTLNKRAVMKLEI [C17R], 1.78; in that of RDAIEALCRRLNTLNKYAVMKLEI [C17Y], 3.7.
In the case of RDAIEALCRRLNTLNKMAVMKLEI [C17M], the protein stability index came out at 1.63.
For the variant RDAIEALCRRLNTLNKTAVMKLEI [C17T], the protein stability index was 3.57.
Still for that read-out and setting: in the case of RDAIEALCRRLNTLNKKAVMKLEI [C17K] it was 2.36; in that of RDAIEALCRRLNTLNKSAVMKLEI [C17S], 2.17; in that of RDAIEALCRRLNTLNKIAVMKLEI [C17I], 3.57.
Take RDAIEALCRRLNTLNKDAVMKLEI [C17D]: the protein stability index worked out at 3.14.
Consider RDAIEALCRRLNTLNKPAVMKLEI [C17P], for which the protein stability index is 1.07.
Still for that read-out and setting: next, RDAIEALCRRLNTLNKQAVMKLEI [C17Q]: 1.42.
As for RDAIEALCRRLNTLNKHAVMKLEI [C17H], the protein stability index came out at 4.06.
Take RDAIEALCRRLNTLNKLAVMKLEI [C17L]: the protein stability index was 2.35.
Still for that read-out and setting: in the case of RDAIEALCRRLNTLNKAAVMKLEI [C17A] it was 1.16; in that of RDAIEALCRRLNTLNKEAVMKLEI [C17E], 2.
With RDAIEALCRRLNTLNKNAVMKLEI [C17N], the protein stability index turned out to be 1.83.
The same measure, in the same setting: next, RDAIEALCRRLNTLNKVAVMKLEI [C17V]: 4.14.
With RDAIEALCRRLNTLAKCAVMKLEI [N15A], the protein stability index was determined as 3.2.
Same read-out and setting: in the case of RDAIEALCRRLNTLLKCAVMKLEI [N15L] it was 3.76; in that of RDAIEALCRRLNTLDKCAVMKLEI [N15D], 3.27.
As to RDAIEALCRRLNTLEKCAVMKLEI [N15E], the protein stability index amounted to 1.44.
As to RDAIEALCRRLNTLKKCAVMKLEI [N15K], the protein stability index came out at 2.63.
Regarding RDAIEALCRRLNTLPKCAVMKLEI [N15P], the protein stability index worked out at 1.75.

These data come from the supplement of paper PMC10567573.
